According to PMC8299537 (Nature, 2021):

T1: PYD and CARD-deleted NLRP1 (NLRP1ΔΔ), molecule A of the ternary complex (human, UniProt Q9C000-1 148-1364)
T1 sequence (looked up): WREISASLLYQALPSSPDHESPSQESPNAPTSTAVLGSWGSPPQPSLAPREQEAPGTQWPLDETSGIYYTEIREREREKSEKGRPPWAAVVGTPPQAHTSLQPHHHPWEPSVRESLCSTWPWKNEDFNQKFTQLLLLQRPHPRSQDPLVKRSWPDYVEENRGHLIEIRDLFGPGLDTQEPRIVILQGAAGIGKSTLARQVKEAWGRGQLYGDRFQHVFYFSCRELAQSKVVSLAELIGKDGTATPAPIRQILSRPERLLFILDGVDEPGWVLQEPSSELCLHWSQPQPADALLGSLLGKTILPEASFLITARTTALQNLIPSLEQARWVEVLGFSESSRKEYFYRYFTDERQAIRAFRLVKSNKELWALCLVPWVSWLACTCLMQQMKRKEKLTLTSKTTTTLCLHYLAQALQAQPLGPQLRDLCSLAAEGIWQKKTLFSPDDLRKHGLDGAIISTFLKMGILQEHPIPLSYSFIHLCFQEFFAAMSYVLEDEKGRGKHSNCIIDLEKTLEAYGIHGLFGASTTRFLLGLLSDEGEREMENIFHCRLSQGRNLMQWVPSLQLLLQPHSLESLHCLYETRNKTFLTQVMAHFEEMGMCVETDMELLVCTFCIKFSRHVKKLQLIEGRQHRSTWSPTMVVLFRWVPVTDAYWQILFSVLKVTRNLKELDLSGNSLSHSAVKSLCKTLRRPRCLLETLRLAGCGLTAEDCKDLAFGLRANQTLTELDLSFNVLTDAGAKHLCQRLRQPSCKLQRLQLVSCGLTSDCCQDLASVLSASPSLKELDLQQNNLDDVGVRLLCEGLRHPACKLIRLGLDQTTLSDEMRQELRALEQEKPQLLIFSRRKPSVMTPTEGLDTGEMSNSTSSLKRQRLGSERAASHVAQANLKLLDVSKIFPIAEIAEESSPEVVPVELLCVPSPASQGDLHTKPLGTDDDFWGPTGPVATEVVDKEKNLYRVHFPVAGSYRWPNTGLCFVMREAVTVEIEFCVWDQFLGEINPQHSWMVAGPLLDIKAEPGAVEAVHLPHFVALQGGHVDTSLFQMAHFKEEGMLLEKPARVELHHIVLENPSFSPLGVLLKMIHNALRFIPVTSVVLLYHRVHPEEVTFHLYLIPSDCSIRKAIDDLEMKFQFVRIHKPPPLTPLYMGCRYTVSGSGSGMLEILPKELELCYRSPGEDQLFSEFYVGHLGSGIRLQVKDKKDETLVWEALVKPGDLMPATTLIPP


Molecular target: T1, PYD and CARD-deleted NLRP1 (NLRP1ΔΔ), …
Assay: cryo-EM structure

binding result | Binder
binds | NLRP1-CT derived from NLRP1ΔΔ (UPA subdomain only), molecule B of the ternary complex (domain or fragment, human, UniProt Q9C000-1 1213-1364, looked up) SPLGVLLKMIHNALRFIPVTSVVLLYHRVHPEEVTFHLYLIPSDCSIRKAIDDLEMKFQFVRIHKPPPLTPLYMGCRYTVSGSGSGMLEILPKELELCYRSPGEDQLFSEFYVGHLGSGIRLQVKDKKDETLVWEALVKPGDLMPATTLIPP
binds | DPP9, short isoform (His-TEV-DPP9), co-purified with NLRP1ΔΔ (enzyme, human) MATTGTPTADRGDAAATDDPAARFQVQKHSWDGLRSIIHGSRKYSGLIVNKAPHDFQFVQKTDESGPHSHRLYYLGMPYGSRENSLLYSEIPKKVRKEALLLLSWKQMLDHFQATPHHGVYSREEELLRERKRLGVFGITSYDFHSESGLFLFQASNSLFHCRDGGKNGFMVSPMKPLEIKTQCSGPRMDPKICPADPAFFSFINNSDLWVANIETGEERRLTFCHQGLSNVLDDPKSAGVATFVIQEEFDRFTGYWWCPTASWEGSEGLKTLRILYEEVDESEVEVIHVPSPALEERKTDSYRYPRTGSKNPKIALKLAEFQTDSQGKIVSTQEKELVQPFSSLFPKVEYIARAGWTRDGKYAWAMFLDRPQQWLQLVLLPPALFIPSTENEEQRLASARAVPRNVQPYVVYEEVTNVWINVHDIFYPFPQSEGEDELCFLRANECKTGFCHLYKVTAVLKSQGYDWSEPFSPGEDEFKCPIKEEIALTSGEWEVLARHGSKIWVNEETKLVYFQGTKDTPLEHHLYVVSYEAAGEIVRLTTPGFSHSCSMSQNFDMFVSHYSSVSTPPCVHVYKLSGPDDDPLHKQPRFWASMMEAASCPPDYVPPEIFHFHTRSDVRLYGMIYKPHALQPGKKHPTVLFVYGGPQVQLVNNSFKGIKYLRLNTLASLGYAVVVIDGRGSCQRGLRFEGALKNQMGQVEIEDQVEGLQFVAEKYGFIDLSRVAIHGWSYGGFLSLMGLIHKPQVFKVAIAGAPVTVWMAYDTGYTERYMDVPENNQHGYEAGSVALHVEKLPNEPNRLLILHGFLDENVHFFHTNFLVSQLIRAGKPYQLQIYPNERHSIRCPESGEHYEVTLLHFLQEYL
